US11851498B2, “Anti-CD276 antibodies (B7H3)” (THE UNITED STATES OF AMERICA, as represented by THE …, priority 2014, dated 2023)
Residue numbers refer to the chain shown, from its start. Entries after “also recorded” stand apart in the source; their conditions may differ. Values belong to the molecule of their own block, whether it stands above or below them. Non-standard residues stand in square brackets, D forms with d. Residues, ends and D or L forms follow the SMILES beside them. *: point of attachment. Dolaproine = CO[C@@H]([C@@H]1CCCN1)[C@@H](C)C(=O)O; Dil = CC[C@H](C)[C@H](NC)[C@@H](CC(=O)O)OC; X1 = C[C@@H](N*)[C@@H](O)c1ccccc1; NMeV = CN[C@H](C(=O)O)C(C)C

Assays:
HEK 293 cells (293) = experiment: Cell viability of untransduced HEK 293 cells; settings: 293 cells (low CD276); various concentrations (nM); FIG. 7
Description: (§1) HEK 293 cells (293) or HEK 293 cells transduced with CD276 (293/CD276) were treated with MMAE alone, m8524 (m276) (SEQ ID NOs: 26 and 27) antibody alone, m825 (irrelevant control antibody)-ADC, or m8524-ADC. The drug of the ADCs was MMAE.

293/CD276 cells = experiment: Cell viability of HEK 293 cells transduced with CD276; settings: FIG. 7
Description: as §1

[1] = test system: human CD276-AP fusion protein; experiment: ELISA binding assay, human CD276; settings: scFv-Fc fusion protein in culture medium, serially diluted; CD276-AP coated at 2 μg/ml; FIG. 1A
Description: (§2) The scFv-encoding inserts of the unique clones were digested with SfiI and ligated into modified pSecTag bearing the same set of SfiI sites and Fc-Avi tag for soluble expression. These constructs were transfected into 293T cells for expression following the manufacturer's protocol. After 72 hr of growth, the scFv-Fc fusion proteins in the culture medium were used for the ELISA binding assay.
(§3) 50 μl of the diluted human (FIG. 1A) or mouse (FIG. 1B) CD276-AP fusion protein in PBS at 2 μg/ml was coated in a 96-well plate at 4° C. overnight. Transiently expressed scFv-Fc fusion protein in the culture medium was serially diluted and added into the target protein coated wells. After washing, a 1:3000 diluted horseradish peroxidase (HRP) conjugated goat anti-human IgG antibody was added for 1 hr at RT. After washing, 3, 3, 5, 5′-Tetramethylbenzidine (TMB) substrate was added, and the optical density (O.D.) was read at 450 nm.

[2] = test system: mouse CD276-AP fusion protein; experiment: ELISA binding assay, mouse CD276; settings: scFv-Fc fusion protein in culture medium, serially diluted; CD276-AP coated at 2 μg/ml; FIG. 1B
Chain of mouse CD276-AP fusion protein (Q8VE98 29-248 limits assumed): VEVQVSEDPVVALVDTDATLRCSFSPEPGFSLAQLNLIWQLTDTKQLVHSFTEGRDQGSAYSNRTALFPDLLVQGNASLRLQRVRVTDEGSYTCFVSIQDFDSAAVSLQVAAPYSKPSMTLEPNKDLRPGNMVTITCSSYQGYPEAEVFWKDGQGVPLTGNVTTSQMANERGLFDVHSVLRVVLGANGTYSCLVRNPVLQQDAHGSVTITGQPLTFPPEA
Description: as §2, §3

[3] = biological target: T1, human CD276 expressed on the surface of HEK 293 cells (293/CD276) (Homo sapiens, UniProt Q5ZPR3); experiment: Flow cytometry binding to HEK293 cells transduced with human CD276; type: cell-based; settings: FITC-labeled IgG1; FIG. 5
T1 construct: expressed in transfected cells; host or cells: HEK293 cells
T1 sequence (Q5ZPR3 29-534): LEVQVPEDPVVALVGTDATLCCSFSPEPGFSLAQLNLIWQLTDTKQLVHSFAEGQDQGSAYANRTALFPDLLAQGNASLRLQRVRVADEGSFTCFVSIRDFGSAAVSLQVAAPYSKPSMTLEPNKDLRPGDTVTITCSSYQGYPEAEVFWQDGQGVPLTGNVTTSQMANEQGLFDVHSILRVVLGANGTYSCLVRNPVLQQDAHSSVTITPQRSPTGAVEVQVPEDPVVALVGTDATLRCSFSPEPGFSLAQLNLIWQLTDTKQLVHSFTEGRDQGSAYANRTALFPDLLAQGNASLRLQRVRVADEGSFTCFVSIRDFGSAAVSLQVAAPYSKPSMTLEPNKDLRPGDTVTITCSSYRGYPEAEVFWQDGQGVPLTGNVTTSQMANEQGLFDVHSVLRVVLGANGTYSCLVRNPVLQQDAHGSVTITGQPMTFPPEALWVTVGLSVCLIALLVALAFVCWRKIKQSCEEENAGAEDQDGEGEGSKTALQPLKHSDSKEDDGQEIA
Description: HEK293 cells were untransduced or transduced to express human CD276. The cells were cultured with FITC-labeled human anti-CD276 antibody m8524 IgG1 (SEQ ID NOs: 26 and 27). The binding of the FITC-labeled human anti-CD276 antibody m8524 IgG1 to human CD276 expressed on the cell surface was measured by flow cytometry.

[4] = test system: Pan02 pancreatic adenocarcinoma tumors, tumor vasculature and normal tissues; experiment: In vivo localization of FITC-labeled antibody after IP injection into Pan02 tumor-bearing mice (immunofluorescence); settings: FITC-labeled IgG1 IP; for localization/staining in tumor (tumor cells and tumor vasculature): co-stain anti-CD31/anti-Meca32
Description: CD276 KO mice and CD276 WT mice each bearing Pan02 pancreatic adenocarcinoma tumors were injected (IP) with FITC-labeled 8524 IgG1 (SEQ ID NOs: 26 and 27) and anti-CD31/anti-Meca32. Anti-Meca32 is a monoclonal antibody with specificity for mouse endothelium.
(§4) CD276-positive, Pan02 pancreatic adenocarcinoma tumor-bearing, CD276 KO mice were injected (IP) with FITC-labeled 8524 IgG1 (SEQ ID NOs: 26 and 27) (green staining) and anti-CD31/anti-Meca32 (red staining). CD31/Meca32 positive vessels were stained red. Human tumor cells were stained green. Separate photographic images of the green and red staining were taken, and the images of the red and green staining were merged to provide a third image wherein co-localization of red and green staining provided a yellow signal.
as §4, with “WT” for “KO”
CD276 KO mice and CD276 WT mice each bearing Pan02 pancreatic adenocarcinoma tumors were injected (IP) with FITC-labeled 8524 IgG1 (SEQ ID NOs: 26 and 27) and anti-CD31/anti-Meca32. CD31/Meca32 positive vessels in the normal liver of both CD276 KO and CD276 WT mice and in the tumor vasculature of CD276 WT mice were stained red. Human tumor cells and tumor vasculature were stained green in the CD276 WT mice. Separate photographic images of the green and red staining in the tumor of CD276 WT mice were taken, and the images of the red and green staining were merged to provide a third image wherein co-localization of red and green staining provided a yellow signal. […] The yellow signal indicated the co-localization of the CD31/Meca32 staining (red) with the CD276 staining (green).
CD276 WT mice bearing Pan02 pancreatic adenocarcinoma tumors were injected (IP) with FITC-labeled 8524 IgG1 (SEQ ID NOs: 26 and 27) and anti-CD31/anti-Meca32. CD31/Meca32 positive vessels in normal tissues, including the brain, heart, intestines, liver, muscle, spleen, and stomach of the CD276 WT mice were stained red. Pan02 tumors served as a positive control for the staining of all normal tissues. CD31/Meca32 positive vessels in the tumor vasculature of CD276 WT mice were also stained red. Human tumor cells and tumor vasculature were stained green in the CD276 WT mice. […]

[5] = test system: MC38 (colon cancer) tumor / normal liver margin; experiment: Co-immunofluorescence post-staining of intrahepatic MC38 tumors at the normal liver/tumor margin; settings: MC38 tumor-bearing WT mice; samples post-stained with FITC-labeled IgG1; FIG. 6B
From the text: Samples of the normal liver/tumor margin of MC38 (colon cancer)-tumor bearing, WT mice were post-stained with FITC-labeled human anti-CD276 antibody (m8524 IgG1) (SEQ ID NOs: 26 and 27) (FIG. 6B) or laminin (FIG. 6A). Photographic images were taken.

[6] = CD276 WT mice bearing Pan02 tumors

Molecule: CC[C@H](C)[C@@H]([C@@H](CC(=O)N1CCC[C@H]1[C@H](OC)[C@@H](C)C(=O)N[C@H](C)[C@@H](O)c1ccccc1)OC)N(C)C(=O)[C@@H](NC(=O)[C@@H](NC)C(C)C)C(C)C [MMAE, monomethyl auristatin E, reference compound] (H-[NMeV]V[Dil][Dolaproine]-X1)
cytotoxicity (cell viability, % of control) (HEK 293 cells (293)): cytotoxic to all cells | cytotoxicity (cell viability, % of control) (293/CD276 cells; 293/CD276 cells (high CD276), various concentrations (nM)): cytotoxic to all cells | selectivity for CD276-expressing cells (293/CD276 cells; 293/CD276 versus 293 cells): no selectivity

binding to human CD276 (OD at 450 nm, ELISA) [1]: bound | binding to mouse CD276 (OD at 450 nm, ELISA) [2]: bound
B1: m852: anti-CD276 antibody clone, heavy chain comprising SEQ ID NO: 7 and light chain comprising SEQ ID NO: 8 (antibody, V domains shown)
VH: QVQLQQSGAEVKKPGSSVKVSCKASGGTFSSYAISWVRQAPGQGLEWMGGIIPILGIANYAQKFQGRVTITADESTSTAYMELSSLRSEDTAVYYCARGRRSGSYYMGYWGQGTLVTVSS
VL: EIVLTQSPATLSLSPGERATLSCRASQSVSSNLAWYQQKPGQAPRLLIYDTSTRATGIPARFSGSGSGTEFTLTISSLQSEDFAVYYCQQYNNWPPAYTFGQGTKLEIK

binding to human CD276 (OD at 450 nm, ELISA) [1]: bound | binding to mouse CD276 (OD at 450 nm, ELISA) [2]: bound
B2: m857: anti-CD276 antibody clone, heavy chain comprising SEQ ID NO: 17 and light chain comprising SEQ ID NO: 18 (antibody, V domains shown)
VH: QVQLQQSGAEVKKPGSSVKVSCKASGGTFSSYAISWVRQAPGQGLEWMGGIIPILGIANYAQKFQGRVTITADESTSTAYMELSSLRSEDTAVYYCATGGSGSYAFDIWGQGTMVTVSS
VL: B1 VL with N32Y, T51A, T53N, E70D, Q79E, S80P, Y91R, N92S, A97S

binding to CD276-transfected 293 cells as compared to non-transfected parent 293 cells (flow cytometry) [3]: increased binding
B3: m8524 IgG1: human anti-CD276 antibody m8524 in IgG1 format (SEQ ID NOs: 26 and 27), FITC-labeled (antibody, V domains shown)
VH: B2 VH with T98R, A105H, F106M, I108V, Q111K, M114T
VL: EIVLTQSPATLSLSPGERATLSCRASQSVSSYLAWYQQKPGQAPRLLIYDASNRATGIPARFSGSGSGTDFTLTISSLEPEDFAVYYCQQRSNWPPRITFGQGTRLEIK
modifications: FITC label
staining of normal liver ([4]; CD276 WT and CD276 KO mice bearing Pan02 tumors): not the normal liver | staining of normal tissues (brain, heart, intestines, liver, muscle, spleen, stomach) [4, 6]: did not stain any of the normal tissues | localization/staining in tumor (tumor cells and tumor vasculature) [4, 6]: co-localization; also recorded: localized to both human tumor cells and tumor vasculature; also recorded: stained tumor cells and tumor vasculature | localization/staining in tumor (tumor cells and tumor vasculature) ([4]; CD276 WT mice bearing Pan02 tumors, listed as 8524 IgG1): stained tumor cells (green) and tumor vasculature | staining at the normal liver/tumor margin [5]: stained tumor cells but not normal tissue
